From publication PMC13462943

Target: SAM
Assay: native mass spectrometry
Details: protein and substrate concentrations 5 µM

other: relative abundance, 1x SAM bound (parent: 11): 18
other: relative abundance, free protein (parent: 88): 80
Substance: GLP methyltransferase domain (aa 1001-1266), wild type (from UniProt Q9H9B1-1) C1073Y
